# Test results as given in article PMC9482650, “Quantitative fragmentomics allow affinity mapping of interactomes” (Nature Communications, 2022).
# T1: HTRA4, P83105
# T1 sequence (P83105 378-476, limits assumed, looked up): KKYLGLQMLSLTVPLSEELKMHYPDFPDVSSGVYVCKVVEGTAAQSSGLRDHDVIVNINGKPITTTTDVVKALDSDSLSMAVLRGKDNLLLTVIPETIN
# T2: LRRC7, Q96NW7
# T2 sequence (Q96NW7 1440-1537, limits assumed, looked up): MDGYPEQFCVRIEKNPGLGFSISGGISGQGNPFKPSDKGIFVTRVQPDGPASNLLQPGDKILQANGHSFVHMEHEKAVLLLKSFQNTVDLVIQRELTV
# T3: LIN7A, O14910
# T3 sequence (O14910 103-200, limits assumed, looked up): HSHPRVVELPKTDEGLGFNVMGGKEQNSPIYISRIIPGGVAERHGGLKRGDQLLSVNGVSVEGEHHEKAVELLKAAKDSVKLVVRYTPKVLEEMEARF
# T4: TIAM2, Q8IVF5
# T4 sequence (Q8IVF5 885-986, limits assumed, looked up): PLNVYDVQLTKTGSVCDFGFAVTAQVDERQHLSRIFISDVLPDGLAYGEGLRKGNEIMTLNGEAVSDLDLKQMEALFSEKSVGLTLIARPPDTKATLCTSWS
# T5: PCLO, Q9Y6V0
# T5 sequence (Q9Y6V0 4491-4600, limits assumed, looked up): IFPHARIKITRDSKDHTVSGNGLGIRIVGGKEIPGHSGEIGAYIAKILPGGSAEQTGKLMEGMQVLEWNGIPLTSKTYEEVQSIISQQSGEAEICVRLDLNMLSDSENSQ
# T6: GRIP1_4, Q9Y3R0
# T6 sequence (Q9Y3R0 467-571, limits assumed, looked up): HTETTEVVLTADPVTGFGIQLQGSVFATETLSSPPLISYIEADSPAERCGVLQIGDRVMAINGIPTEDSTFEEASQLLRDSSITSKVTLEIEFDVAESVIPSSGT
# T7: PARD3B_1, Q8TEW8
# T7 sequence (Q8TEW8 196-299, limits assumed, looked up): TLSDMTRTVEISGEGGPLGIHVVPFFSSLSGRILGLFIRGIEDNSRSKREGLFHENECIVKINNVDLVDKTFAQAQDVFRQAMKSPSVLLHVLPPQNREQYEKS
# T8: APBA1_2, Q02410
# T8 sequence (Q02410 742-832, limits assumed, looked up): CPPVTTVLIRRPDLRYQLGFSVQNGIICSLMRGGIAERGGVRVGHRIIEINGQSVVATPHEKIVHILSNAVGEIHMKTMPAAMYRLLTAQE
# T9: APBA1_1, Q02410
# T9 sequence (Q02410 651-752, limits assumed, looked up): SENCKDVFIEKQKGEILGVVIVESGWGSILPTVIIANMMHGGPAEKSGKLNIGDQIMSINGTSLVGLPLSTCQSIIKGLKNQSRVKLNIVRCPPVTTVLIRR
# T10: GRIP1_2, Q9Y3R0
# T10 sequence (Q9Y3R0 145-248, limits assumed, looked up): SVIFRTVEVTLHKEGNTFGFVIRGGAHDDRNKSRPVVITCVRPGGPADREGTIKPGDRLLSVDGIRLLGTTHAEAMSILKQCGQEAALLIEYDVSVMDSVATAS
# T11: GRIP1_3, Q9Y3R0
# T11 sequence (Q9Y3R0 247-346, limits assumed, looked up): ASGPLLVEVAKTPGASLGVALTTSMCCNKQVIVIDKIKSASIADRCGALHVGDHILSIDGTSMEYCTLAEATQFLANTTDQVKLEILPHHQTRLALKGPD
# How the values were obtained:
# Test in all cases: holdup assay
# Set-up in all cases: key: below the threshold = too weak to quantify, mostly under pKd 3.1 to 4
# Conditions in all cases: plain residues with an end cap or a label only (N-terminal biotin on a linker: ado-ado)
# PARD3_3, Q8TEW0 = molecular target: PARD3_3, Q8TEW0
# NHERF2_2, Q15599 = molecular target: NHERF2_2, Q15599
# Inadl_9, Q8NI35 = molecular target: Inadl_9, Q8NI35
# HTRA4, P83105 = molecular target: T1, HTRA4, P83105
# LRRC7, Q96NW7 = molecular target: T2, LRRC7, Q96NW7
# MAGI2_2, Q86UL8 = molecular target: MAGI2_2, Q86UL8
# Inadl_8, Q8NI35 = molecular target: Inadl_8, Q8NI35
# NOS1, P29475 = molecular target: NOS1, P29475
# Inadl_2, Q8NI35 = molecular target: Inadl_2, Q8NI35
# PDZRN4_1, Q6ZMN7 = molecular target: PDZRN4_1, Q6ZMN7
# DLG2_2, Q15700 = molecular target: DLG2_2, Q15700
# LIN7A, O14910 = molecular target: T3, LIN7A, O14910
# FRMPD2_2, Q68DX3 = molecular target: FRMPD2_2, Q68DX3
# TIAM2, Q8IVF5 = molecular target: T4, TIAM2, Q8IVF5
# PCLO, Q9Y6V0 = molecular target: T5, PCLO, Q9Y6V0
# GRIP2_3, Q9C0E4 = molecular target: GRIP2_3, Q9C0E4
# DLG5_1, Q8TDM6 = molecular target: DLG5_1, Q8TDM6
# GRIP1_4, Q9Y3R0 = molecular target: T6, GRIP1_4, Q9Y3R0
# GOPC, Q9HD26 = molecular target: GOPC, Q9HD26
# PARD3B_1, Q8TEW8 = molecular target: T7, PARD3B_1, Q8TEW8
# PICK1, Q9NRD5 = molecular target: PICK1, Q9NRD5
# APBA1_2, Q02410 = molecular target: T8, APBA1_2, Q02410
# ARHGEF12, Q9NZN5-2 = molecular target: ARHGEF12, Q9NZN5-2
# APBA1_1, Q02410 = molecular target: T9, APBA1_1, Q02410
# GRIP1_2, Q9Y3R0 = molecular target: T10, GRIP1_2, Q9Y3R0
# GRIP1_3, Q9Y3R0 = molecular target: T11, GRIP1_3, Q9Y3R0
# Chain of Inadl_8, Q8NI35 (Q8NI35 1425-1530): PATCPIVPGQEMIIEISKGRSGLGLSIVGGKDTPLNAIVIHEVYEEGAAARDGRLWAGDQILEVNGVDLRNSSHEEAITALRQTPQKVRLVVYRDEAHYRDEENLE
# Chain of ARHGEF12, Q9NZN5-2 (Q9NZN5 other isoform, or with tags, fused parts or gaps): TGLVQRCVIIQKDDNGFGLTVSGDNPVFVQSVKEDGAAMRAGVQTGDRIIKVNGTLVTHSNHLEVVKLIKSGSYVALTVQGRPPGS
# Chain of DLG5_1, Q8TDM6 (Q8TDM6 617-713): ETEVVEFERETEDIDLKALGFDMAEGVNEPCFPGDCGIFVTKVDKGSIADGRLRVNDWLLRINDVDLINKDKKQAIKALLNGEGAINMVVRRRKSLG
# Chain of GRIP2_3, Q9C0E4 (Q9C0E4 238-339): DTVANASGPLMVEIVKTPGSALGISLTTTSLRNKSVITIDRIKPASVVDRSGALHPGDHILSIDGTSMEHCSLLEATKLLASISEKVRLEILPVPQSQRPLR
# Chain of DLG2_2, Q15700 (Q15700 189-283): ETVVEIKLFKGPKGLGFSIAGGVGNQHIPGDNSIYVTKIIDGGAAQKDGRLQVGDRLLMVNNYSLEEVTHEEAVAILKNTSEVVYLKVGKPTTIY
# Chain of Inadl_2, Q8NI35 (Q8NI35 238-335): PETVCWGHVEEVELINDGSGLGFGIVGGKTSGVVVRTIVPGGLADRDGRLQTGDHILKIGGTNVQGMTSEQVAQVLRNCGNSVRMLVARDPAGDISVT
# Chain of FRMPD2_2, Q68DX3 (Q68DX3 944-1038): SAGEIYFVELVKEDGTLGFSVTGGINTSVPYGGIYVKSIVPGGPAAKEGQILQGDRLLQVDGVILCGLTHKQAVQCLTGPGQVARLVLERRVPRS
# Chain of Inadl_9, Q8NI35 (Q8NI35 1530-1615): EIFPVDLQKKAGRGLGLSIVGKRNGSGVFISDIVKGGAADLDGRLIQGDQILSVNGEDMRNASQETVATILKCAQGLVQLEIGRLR
# Chain of PICK1, Q9NRD5 (Q9NRD5 17-115): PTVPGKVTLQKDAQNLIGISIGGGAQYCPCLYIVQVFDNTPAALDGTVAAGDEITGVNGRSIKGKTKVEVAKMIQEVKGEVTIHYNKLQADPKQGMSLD
# Chain of PDZRN4_1, Q6ZMN7 (Q6ZMN7 213-318): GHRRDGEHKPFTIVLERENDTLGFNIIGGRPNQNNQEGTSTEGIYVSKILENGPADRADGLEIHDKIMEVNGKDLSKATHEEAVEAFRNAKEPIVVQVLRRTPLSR
# Chain of MAGI2_2, Q86UL8 (Q86UL8 410-522): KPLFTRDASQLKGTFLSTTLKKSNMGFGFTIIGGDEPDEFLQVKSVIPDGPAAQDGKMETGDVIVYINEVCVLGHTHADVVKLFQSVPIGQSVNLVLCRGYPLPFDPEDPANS
# Chain of NHERF2_2, Q15599 (Q15599 142-238): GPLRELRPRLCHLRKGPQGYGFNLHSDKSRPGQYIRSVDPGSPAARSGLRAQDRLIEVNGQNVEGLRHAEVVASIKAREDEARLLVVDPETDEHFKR
# Chain of PARD3_3, Q8TEW0 (Q8TEW0 582-685): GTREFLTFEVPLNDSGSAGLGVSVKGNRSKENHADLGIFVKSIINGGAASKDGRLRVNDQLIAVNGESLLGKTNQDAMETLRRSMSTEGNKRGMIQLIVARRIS
# Chain of NOS1, P29475 (P29475 9-101): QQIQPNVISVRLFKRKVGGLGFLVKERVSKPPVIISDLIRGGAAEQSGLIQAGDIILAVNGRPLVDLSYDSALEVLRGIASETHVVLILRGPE
Binder,"pKd (PARD3_3, Q8TEW0)","pKd (NHERF2_2, Q15599)","pKd (Inadl_9, Q8NI35)","pKd (HTRA4, P83105)","pKd (LRRC7, Q96NW7)","pKd (MAGI2_2, Q86UL8)","pKd (Inadl_8, Q8NI35)","pKd (NOS1, P29475)","pKd (Inadl_2, Q8NI35)","pKd (PDZRN4_1, Q6ZMN7)","pKd (DLG2_2, Q15700)","pKd (LIN7A, O14910)","pKd (FRMPD2_2, Q68DX3)","pKd (TIAM2, Q8IVF5)","pKd (PCLO, Q9Y6V0)","pKd (GRIP2_3, Q9C0E4)","pKd (DLG5_1, Q8TDM6)","pKd (GRIP1_4, Q9Y3R0)","pKd (GOPC, Q9HD26)","pKd (PARD3B_1, Q8TEW8)",also measured
"PSVGSKKTVL [REELD1, A0A1B0GV85]",below the threshold,3.68,below the threshold,3.91,below the threshold,below the threshold,below the threshold,3.64,below the threshold,below the threshold,below the threshold,below the threshold,below the threshold,below the threshold,below the threshold,below the threshold,below the threshold,below the threshold,4.26,4.62,"pKd (PICK1, Q9NRD5): below the threshold; pKd (APBA1_2, Q02410): 3.56; pKd (ARHGEF12, Q9NZN5-2): 5.05; pKd (APBA1_1, Q02410): below the threshold; pKd (GRIP1_2, Q9Y3R0): below the threshold; pKd (GRIP1_3, Q9Y3R0): below the threshold"
"DRIQSCLSDA [SBF1, O95248]",below the threshold,below the threshold,below the threshold,below the threshold,below the threshold,below the threshold,below the threshold,below the threshold,below the threshold,below the threshold,below the threshold,below the threshold,below the threshold,4.03,below the threshold,below the threshold,below the threshold,below the threshold,below the threshold,below the threshold,"pKd (PICK1, Q9NRD5): below the threshold; pKd (APBA1_2, Q02410): below the threshold; pKd (ARHGEF12, Q9NZN5-2): below the threshold; pKd (APBA1_1, Q02410): below the threshold; pKd (GRIP1_2, Q9Y3R0): below the threshold; pKd (GRIP1_3, Q9Y3R0): below the threshold"
"SFISKKEWYV [NECTIN1, Q15223]",4.53,below the threshold,4.28,below the threshold,below the threshold,4.96,3.66,3.6,4.8,below the threshold,below the threshold,below the threshold,3.87,5.09,below the threshold,below the threshold,below the threshold,below the threshold,below the threshold,4.73,"pKd (PICK1, Q9NRD5): 4.24; pKd (APBA1_2, Q02410): 3.82; pKd (ARHGEF12, Q9NZN5-2): below the threshold; pKd (APBA1_1, Q02410): below the threshold; pKd (GRIP1_2, Q9Y3R0): below the threshold; pKd (GRIP1_3, Q9Y3R0): below the threshold"
"LKDDELKTKL [SLCO1A2, P46721]",below the threshold,4.67,below the threshold,below the threshold,below the threshold,below the threshold,below the threshold,3.5,below the threshold,below the threshold,below the threshold,below the threshold,below the threshold,below the threshold,below the threshold,below the threshold,below the threshold,below the threshold,3.94,3.84,"pKd (PICK1, Q9NRD5): below the threshold; pKd (APBA1_2, Q02410): below the threshold; pKd (ARHGEF12, Q9NZN5-2): 4.62; pKd (APBA1_1, Q02410): below the threshold; pKd (GRIP1_2, Q9Y3R0): below the threshold; pKd (GRIP1_3, Q9Y3R0): below the threshold"
"AEASVACSLC [PTGIR, P43119]",below the threshold,below the threshold,below the threshold,below the threshold,below the threshold,below the threshold,3.77,below the threshold,below the threshold,below the threshold,below the threshold,below the threshold,below the threshold,3.75,below the threshold,below the threshold,below the threshold,below the threshold,below the threshold,below the threshold,"pKd (PICK1, Q9NRD5): below the threshold; pKd (APBA1_2, Q02410): below the threshold; pKd (ARHGEF12, Q9NZN5-2): 3.53; pKd (APBA1_1, Q02410): below the threshold; pKd (GRIP1_2, Q9Y3R0): below the threshold; pKd (GRIP1_3, Q9Y3R0): below the threshold"
